From paper PMC10786891, “Massively parallel profiling of RNA-targeting CRISPR-Cas13d”

T1: EsCas13d, nuclease-dead (Eubacterium siraeum, UniProt B0MS50, R295A;H300A;R849A;H854A)
T1 sequence: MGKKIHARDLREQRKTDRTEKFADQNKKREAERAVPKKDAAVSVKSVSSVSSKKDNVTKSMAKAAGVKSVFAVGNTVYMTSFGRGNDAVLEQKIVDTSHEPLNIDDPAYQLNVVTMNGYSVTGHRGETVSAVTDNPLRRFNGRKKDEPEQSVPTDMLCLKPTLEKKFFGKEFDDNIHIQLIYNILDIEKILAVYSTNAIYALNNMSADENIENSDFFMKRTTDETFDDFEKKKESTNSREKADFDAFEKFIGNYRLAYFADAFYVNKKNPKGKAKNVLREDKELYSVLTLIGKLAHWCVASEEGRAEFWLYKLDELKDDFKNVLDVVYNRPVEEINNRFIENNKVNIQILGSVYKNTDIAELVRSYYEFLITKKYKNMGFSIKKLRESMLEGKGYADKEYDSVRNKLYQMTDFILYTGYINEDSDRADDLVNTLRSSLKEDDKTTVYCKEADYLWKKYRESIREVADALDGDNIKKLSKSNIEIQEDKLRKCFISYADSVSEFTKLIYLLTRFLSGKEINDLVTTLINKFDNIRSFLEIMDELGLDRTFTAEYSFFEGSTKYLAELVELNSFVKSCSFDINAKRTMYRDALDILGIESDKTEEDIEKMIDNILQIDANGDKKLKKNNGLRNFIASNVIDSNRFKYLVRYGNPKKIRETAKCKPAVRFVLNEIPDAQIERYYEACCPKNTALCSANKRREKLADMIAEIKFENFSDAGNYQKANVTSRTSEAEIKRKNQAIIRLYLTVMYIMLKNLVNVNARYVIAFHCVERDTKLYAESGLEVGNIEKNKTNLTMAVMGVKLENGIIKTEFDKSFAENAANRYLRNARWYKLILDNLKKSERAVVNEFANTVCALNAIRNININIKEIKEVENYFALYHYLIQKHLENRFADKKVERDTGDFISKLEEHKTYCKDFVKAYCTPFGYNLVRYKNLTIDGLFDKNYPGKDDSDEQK


target: T1, EsCas13d, nuclease-dead; experiment: crRNA (strand 1, pre-loaded); Mg2+; 40 mM Tris-HCl pH 7.5, 150 mM NaCl, 6 mM MgCl2, 1 mM DTT, 0.1% Tween-20, 0.2 mg/ml BSA; 25 C; 10 min per concentration, then washed; settings: tags: His6-TwinStrep-SUMO cleaved; N-terminal SNAP kept (SNAP-Surface 488); label: 3' end held by stalled T7 RNA polymerase

Row | Binder | Kd
1 | target 3 insA 3' of 10,insG 3' of 2 (mixed) RNA 1: CACCCGUGCAAAAUUGCAGGGGUCUAAAACGACCUGAAUAUUUCAGAUCAAA RNA 2: GGGAAUGGAUCCACAUCUACGAAUUCGUUUUUGAUCUGAAAUAAUUCAGGUGCUGCAGAUCGGAAGAGCACACGU | 0.042 ± 0.0065 µM
2 | target 1 A1C,U8A (mixed) RNA 1: CACCCGUGCAAAAAUGCAGGGGUCUAAAACUGAGCGGAUAACCUCUCUAUGG RNA 2: GGGAAUGGAUCCACAUCUACGAAUUCGUACCAUAGAGAGGUUAACCGCUCCCCGAGAUCGGAAGAGCACACGU | 0.0255 ± 0.0018 µM
3 | target 1 insU 3' of 15,insG 3' of 7 (mixed) RNA 1: CACCCGUGCAAAAAUGCAGGGGUCUAAAACUGAGCGGAUAACCUCUCUAUGG RNA 2: GGGAAUGGAUCCACAUCUACGAAUUCGUACCAUAGAGUAGGUUAUCGCGCUCACCGAGAUCGGAAGAGCACACGU | 0.0107 ± 0.0004 µM
4 | target 1 U3C,G5A (mixed) RNA 1: CACCCGUGCAAAAAUGCAGGGGUCUAAAACUGAGCGGAUAACCUCUCUAUGG RNA 2: GGGAAUGGAUCCACAUCUACGAAUUCGUACCAUAGAGAGGUUAUCCACCCACCGAGAUCGGAAGAGCACACGU | 0.067 ± 0.022 µM
5 | target 1 U8C,A20U (mixed) RNA 1: CACCCGUGCAAAAAUGCAGGGGUCUAAAACUGAGCGGAUAACCUCUCUAUGG RNA 2: GGGAAUGGAUCCACAUCUACGAAUUCGUACCUUAGAGAGGUUACCCGCUCACCGAGAUCGGAAGAGCACACGU | 0.08 ± 0.008 µM
6 | target 1 insA 3' of 15,insG 3' of 11 (mixed) RNA 1: CACCCGUGCAAAAAUGCAGGGGUCUAAAACUGAGCGGAUAACCUCUCUAUGG RNA 2: GGGAAUGGAUCCACAUCUACGAAUUCGUACCAUAGAGAAGGUGUAUCCGCUCACCGAGAUCGGAAGAGCACACGU | 0.024 ± 0.004 µM
7 | target 1 G12U,C21U (mixed) RNA 1: CACCCGUGCAAAAAUGCAGGGGUCUAAAACUGAGCGGAUAACCUCUCUAUGG RNA 2: GGGAAUGGAUCCACAUCUACGAAUUCGUACUAUAGAGAGUUUAUCCGCUCACCGAGAUCGGAAGAGCACACGU | 0.0074 ± 0.0005 µM
8 | target 1 insG 3' of 19,insG 3' of 9 (mixed) RNA 1: CACCCGUGCAAAAAUGCAGGGGUCUAAAACUGAGCGGAUAACCUCUCUAUGG RNA 2: GGGAAUGGAUCCACAUCUACGAAUUCGUACCAUGAGAGAGGUUAGUCCGCUCACCGAGAUCGGAAGAGCACACGU | 0.044 ± 0.005 µM
9 | target 1 insC 3' of 19,insU 3' of 15 (mixed) RNA 1: CACCCGUGCAAAAAUGCAGGGGUCUAAAACUGAGCGGAUAACCUCUCUAUGG RNA 2: GGGAAUGGAUCCACAUCUACGAAUUCGUACCAUCAGAGUAGGUUAUCCGCUCACCGAGAUCGGAAGAGCACACGU | 0.062 ± 0.026 µM
10 | target 1 U3A,C7A (mixed) RNA 1: CACCCGUGCAAAAAUGCAGGGGUCUAAAACUGAGCGGAUAACCUCUCUAUGG RNA 2: GGGAAUGGAUCCACAUCUACGAAUUCGUACCAUAGAGAGGUUAUACGCACACCGAGAUCGGAAGAGCACACGU | 0.007 ± 0.0004 µM
11 | target 1 U3C,U8G (mixed) RNA 1: CACCCGUGCAAAAAUGCAGGGGUCUAAAACUGAGCGGAUAACCUCUCUAUGG RNA 2: GGGAAUGGAUCCACAUCUACGAAUUCGUACCAUAGAGAGGUUAGCCGCCCACCGAGAUCGGAAGAGCACACGU | 0.0186 ± 0.0012 µM
12 | target 1 C7U,U11C (mixed) RNA 1: CACCCGUGCAAAAAUGCAGGGGUCUAAAACUGAGCGGAUAACCUCUCUAUGG RNA 2: GGGAAUGGAUCCACAUCUACGAAUUCGUACCAUAGAGAGGCUAUUCGCUCACCGAGAUCGGAAGAGCACACGU | 0.0087 ± 0.0004 µM
13 | target 1 G15C,A16G (mixed) RNA 1: CACCCGUGCAAAAAUGCAGGGGUCUAAAACUGAGCGGAUAACCUCUCUAUGG RNA 2: GGGAAUGGAUCCACAUCUACGAAUUCGUACCAUAGGCAGGUUAUCCGCUCACCGAGAUCGGAAGAGCACACGU | 0.071 ± 0.011 µM
